# According to the DeepSol protein solubility set:
# Assay: soluble on expression in E. coli; label from the status in PepcDB or PDB records
row,Sequence,soluble on expression in E. coli
1,MRFFSLIKLPVVLVLAGLLSACGFHLRGEYSVPEELHTMSFSSYDEYSKLTRYVRSQLQLNKVDLVQPSSSVPNLHLIKATMDERTLSLYQNSRAAEKELTYVVQYRVTIPGFGSKNFTTTVNRNYLDNPLTALAKSVERDVIEDEMRQQAAKQMMRQLGRIRAEYEAGQIAAPTEKTNSLEHHHHHH,not soluble
2,MGSDKIHHHHHHMDYWEKADYSWSDDSKRHILTPSSKSRTLFYYIQEIGQFKASRPYYTERAHLPSYLIKFTLNGTGELRYRYHTYSLQRGDLFFIDCRDYQYYQATSEDPWEMDWIHFEGGNSGAFFQEFMKNGSPVFSTNQLPEDNPIHLIIQQLLQLQDLQHAQTDYQSSVLIHQLLNELLLQKYRQDFTYETIPSLVLEMKAYIDQHFKETISLEDLAQLFHLNKYQLNKEFSKYIGLPPIKYQISKKISYSKDLLRYSNQTVKEIAVDVGLENYAYFSRLFKKRTGLTPSQYRKSGF,not soluble
3,MDPSMYPGASATYLSYPQQNASQDYLGAYAAQTTTTTRNTANGSTSSDHLLGDPSSSCSPRETSPSTTSLVLTIRLLMQGKEVGSIIGKKGDQIKKIREESGAKINISDGSCPERIVTITGTLGVIGKAFNMVCNKFEEDMLLLPNSVPKPPITMRVIVPATQCGSLIGKGGSKIKDIREATGASIQVASEMLPHSTERAVTLSGTADAINLATSLKIPGSTKRLHNHIPPKTNVQPIGNRHVSGYNCRTTTTGTGSTATRRGSTYGWRTGTGVQVQQQLVTNALLQQHQFAAVQQELAARAALFNQQLMMPGQQQQASQAQEVYLGQHGLIYTANGVQLGGQDNSKAMEAGAAAAAAAQWQGYDMAAMQQQQQQQQQLLNQYALNQSMLIGAPFMKGGPTPPGTTSGKATSSGASAQGAATSSARFHPY,not soluble
4,MQYVAYAEGAKMASGAAKETSSNLFGIWDTWNSNPQMRKDHANELKKKSDEAYNNDMEELKKTRSAFDQEIAKRHAAADMQMSELVKSNNTELKTLQDQFNRDEASHGMAMKMMVREHAEKMKELRSEGREAQERAEREHRMKMSEAEEEHRKEKEIAQEKMDAAKREGSMKIALVEEEKQKIMKERSDELEKYTREMNEMAKNHQEERKKHNAIIGQKKMEMIGSKRDQLKIESEKILESMRNDINLLLAVEIKQNGSHLVEKLIDLFESVKTVKCLMDTVQTELTTIGDEVPEITPGQLSTFDDIKRHKTLFDNRVARFRKNVVTSSFTDAKLYEICMTTVSDFEKIMDKQDMKLVCHHLPKAVENQDFKKIKYYADMASKLNNQFSQEVQHLAAGFSNVSKTYAIDRSNQAAIQN,not soluble
5,MSLYSDQLVCPAHVPRGSPEGRVDAIAAMVTTRTAVQAPVERRTALFVNGQAWLTAQTTPHDLADWAVGRLCGEGLIAGPEEIAHLAVDEAGPCVHAVLPRVRTPAPPAPVAPGPRVAEAQLLRWMQEMLAQAPLYRATGGMHVAMAVRADSGEQIVREDIGRHQAVDKVLGAARLAGWPPAQVVVLTSGRISAEMCARVARFGAPVCASRTAATDEAWALATRLGMDLVGYVRTAASLIVYTTGNRVARRIEPEGHHHHHH,soluble
6,MEKKKVVLAYSGGLDTSVAIKWLQEKNYDIIALCLDLGEGKDLAFVKEKALSVGAIKSYMIDVQEEFANEYALMAMQAHTLYEGKYPLVSALSRPLIAKKLVEIAEQEGATAVAHGCTGKGNDQVRFEVSIQALNPYLEVIAPVREWKWSREEEIAYAKENNVPIPINLDSPFSIDQNLWGRSNECGILEDPWAAPPEDAYEMTLALEDTPNKPEFVEIGFEAGVPTTLNGTAYPLSELIKTLNALAGKHGVGRIDHVENRLVGIKSREVYECPAAMTLITAHKELEDLTLVKEVAHFKPMIEQKITELIYNGLWFSPLKQALHAFLQETQKNVTGTVRVKLFKGHAIVEGRKSEYSLYDEKLATYTAQDEFNHDAAVGFISLFGLPTKVYSQVNQKKVEA,not soluble
7,MAPLVAVVSSPRARLFACFLRLGTQQAGPLQLHTGACCTAKNHYEVLVLGGGAGGITMATRMKRRVGAENVAIVEPSERHFYQPIWTLVGAGAKELSLSVRSTLSVIPSGVQWIQDRVAELNPDENCIRTDSGKEISYRYLIIALGIQLDYEKIKGLPEGFAYPKIGSNYSVKTVEKTWKALQDFKEGNALFTFPNTPVKCAGAPQKIMYLSEAYFRKTGKRPKANIIFNTALGTIFGVKKYADALQEIIRERDVSVNYKHNLIEVRPDKQEAVFEILDKPGETHVIPYEMLHVTPPMSAPDVLKRSPVADSAGWVDVDKETLQHKKYPNVFGIGDCTNLPTSKTAAAVAAQSGILDRTMCLIMKNQRPIKKYDGYTSCPLVTGYNRVILAEFDYTAQPLETFPFDQSKERITMYLMKADMMPFLYWNMMLRGYWGGPAFLRKLFHLGMN,not soluble
8,MAKKIVIIGAGAGGGISLSKLRRVLKDEDVDITIIDKLGRTDFQPSYIFLSIGQKRVKDLSRDFNLLNGGHVKTVKDEVVSVDAQNRIVNTLKGKYSYDYLIMSPGPDIKKDSFEGIEATDSVWTLEDSLKLRAKIKEFNGGKILISVSSQWYKCPPVPWEMALLLDDYFRKKNMRDKVEITVAHPVSKPMEMYGPGLSDPFAKMLEKRSIGGLYGKKLLGIDASKKEAVFEDDDRLRFDLSIVAPPHSPPSFIKDNEYLRSKNGWASTNLKDFRNPKYDDIFAIGDVIAPTIQIGMAGVLAHFQADTASSAIAEDIIGYPFIDYNKNAVCIIATGSSGVFSYCDLSAKLTDPSVKFPECRMIGNDPLFRFAHDLYEVNFLSSIYGNRLEHHHHHH,not soluble
9,MRSYDFSPLYRATVGFDRIADLMDRVMTSEVAQPTYPPYNIEKTAENAYRISIAVAGFTPDELAVEVKENTLHVGARKAADEAERTYLHRGIATRAFERRFALADHVRVSGATHEHGMLHIDLVRETPEALKPRRIEIARGDLGGTRSIEAVKEPVEA,not soluble
10,MLYASYMSYVSIKMHASSNGAHISGAETLVDESRAYEFLSSFYQRANTHSKGKPEITTLTIRRIKDADIITIPALEVKCLPALHPSEAHRQVIEQLSNVVSPTIAQMALHTVLNARNMRGAILLCAHTGQRLDPYDPQRGVRASTFGVTPQESAGPTLNKSHFNEALVLASKVMSAPGIVAEICISDDPAYTTGYVTTENTYIRIPHMKDPYSPIGGRVFLLDTRVSTPEDTISYLEQKPVLITGVN,not soluble
11,KSCCSCCPAGCEKCAKDCVCKGEEGAKAEAEKCSCCQ,soluble
12,MSNEHTRPPLPPFTRESAIEKVRLAEDGWNTREPEKIALAYTVDTQWRNRAEFANNREEARDFLTRKWKKELDYRLIKELWAFTDNRIAVRYAYEWHDDSGNWFRSYGNENWEFEADGLMHRRFACINDMPIKESERKFHWPLGRRPDDHPGLTELGLLEHHHHHH,not soluble
13,MTVQIENEFLIATFAEEGAELVSLQSKETGIEYIWQGNPEFWARHAPVLFPIVGRLKEDTYMYQNQAYHLTQHGFARDQVFDVIEKGGEEVSFSLKSTKETKKKYPFDFELVITYTLEHQELTVNYQVEYTGKEEMYFGIGGHPAFNVPLESSLTFEDYYLSFSPKKSRTQIPLAGPFIDLANKTLAQTNTSFDLTHQLFENDAMIFETKGQTAITIATDESDHQVTLSYPEMPFVGIWSPTPKEAPFVCIEPWCGIADAVDATGQLAEKFGINKLPANELFKTQYMISVKLEHHHHHH,not soluble
14,MTVKIALLGFGTVASGVPFLLKENGGKINQSAHSDIKVAKVLVKDEDEKNRLLAAGNDFNFVTNVDDILSDQDITIVVELMGRIEPAKTFITRALEAGKHVVTANKDLLAVHGAELLEIAQANKVALYYEAAVAGGIPILRTLANSLASDKITRVLGVVNGTSNFMVTKMVEEGW,not soluble
15,MGSDKIHHHHHHMSTVESALTRRIMGIETEYGLTFVDGDSKKLRPDEIARRMFRPIVEKYSSSNIFIPNGSRLYLDVGSHPEYATAECDNLTQLINFEKAGDVIADRMAVDAEESLAKEDIAGQVYLFKNNVDSVGNSYGCHENYLVGRSMPLKALGKRLMPFLITRQLICGAGRIHHPNPLDKGESFPLGYCISQRSDHVWEGVSSATTRSRPIINTRDEPHADSHSYRRLHVIVGDANMAEPSIALKVGSTLLVLEMIEADFGLPSLELANDIASIREISRDATGSTLLSLKDGTTMTALQIQQVVFEHASKWLEQRPEPEFSGTSNTEMARVLDLWGRMLKAIESGDFSEVDTEIDWVIKKKLIDRFIQRGNLGLDDPKLAQVDLTYHDIRPGRGLFSVLQSRGMIKRWTTDEAILAAVDTAPDTTRAHLRGRILKAADTLGVPVTVDWMRHKVNRPEPQSVELGDPFSAVNSEVDQLIEYMTVHAESYRS,not soluble
16,MAHHHHHHMKPTPLRGQPGLSRNGEGHNDRATSAASHLWARGARTQSPRRGQKESIATRTAVNNGGGPTHAATTRRSAQASRRTSTRYFKLPDAIAEKGEGAFSPTEPDCGATVLRHPASGRRHEEGEQGGSGIVCDVGVGAEKVAGGRLTTLRRTRGQPNKEASRTAFSMATDDVAPPTRLQYARMPRPMSQMNRTPLGVAVLGLQKIAARSETKRTRPLKRKRRINLPAAGPNGSDGLHSDLRG,soluble
17,MKDTFRLENQTIYFGTERAISASPQTIWRYLTETDKLKQWFPELEIGELGVNGFWRFILPDFEETMPFTDYAEEKYLGVTWDTGIIYFDLKEQAPHQTLLVFSESLPENFTTPRHKDIAGWSIVLNRLKQVVETPDAAPEKIDFPQIENHYLEKLTNLEN,soluble
18,MAERLLQSMSRVAGRCHPDCVKASDEQEDYHASQNAALVAVNLISSARLILKLDAEFTEYSAQFLMDNAGKEDDPGEVDQQRNQVTTENCLRYLAENVWTKKENGQGGMDQQRPVLTVKDCLELAFKKGLPRREHWAHLGCTFKAPPFACQIPRVPVKGEVVEVKTFDEAFKLLVHQPIGAKLHLFSPQIDNVGEGVYKGLTTGNETHYVGLRDVLIASVEEFEGDSVAIVKICYKKKLSFIKVSLSVRFLSVAHDGDKSKFIAPTGLLVDFCVPRLSIN,soluble
19,MPSTSMIEDRSEIERRRFEYLDHPADIQLHSWGSTMEEAFEACLVSMFGYMTDLAKVDEMYEFYWKASGDSLDGLLFQFLDEALNSFHAEPCFVAKRVEILRFDKKKFEIEFRGWGESFDTSKHETEADIKSPTYSNMQINEKPERCDIYVIVDI,not soluble
20,MQITTTFRHMEQSEALKSYAAEKLERVKKYIDEPITAQVFLTVEKIRHIAEVTLTAKGITIKAAEETNDMYAALDAVIDKIERQLRRYKERLKEHKPSADDRALEIQKSVVTAESIEQRTEPVVIRSKTISIKPMSVEEAVMQMDLLHKDFLVFTDASTEAINVVYRRKDGNYGLIEPQRKLEHHHHHH,soluble
21,MAHHHHHHMECVELTPSESGTINRRGAIPANLAGNSYYARRYSTQGGTRRGTLDATEPHVQFRSGDLVLQLCLSAVPRELSHKRIVDVTGIQTSFHNVSERQSKALATVEEAMQTMHLHDGHEVPALQRGDVNLVRLQPRCVYISPPPSHSFAAGEAVAVDLRHLSSALRPLSNPYVLLAQTRRLSFRSEMEAVQTAQVMASFLTELRGGGAVSEGCGSSVGVFGSAAVLRPVVRDGHLVAMTLCPPRDTARGCRRR,not soluble
22,MRDTMEILRTENIVKYFGEFKALDGVSISVNKGDVTLIIGPNGSGKSTLINVITGFLKADEGRVYFENKDITNKEPAELYHYGIVRTFQTPQPLKEMTVLENLLIGEINPGESPLNSLFYKKWIPKEEEMVEKAFKILEFLKLSHLYDRKAGELSGGQMKLVEIGRALMTNPKMIVMDQPIAGVAPGLAHDIFNHVLELKAKGITFLIIEHRLDIVLNYIDHLYVMFNGQIIAEGRGEEEIKNVLSDPKVVEIYIGE,soluble
23,MSPDSCPLVKNILLLDSEGKRVAVKYYSDDWPTNAAKLSFEKYVFSKTSKTNARTEAEITLLDSNIIVYKFAQDLHFFVTGGENENELILASVLQGFFDAVALLLRSNVEKMEALENLDLIFLCLDEMVDQGVVLETDPNVIAGKVAMQSTEASGSLSEQTLTQALATAREHLARSLLT,soluble
